Laboratory results published in publication PMC6746316.

Molecular target: Xenopus tropicalis ALDH16B1 (Xenopus tropicalis)
Experiment: SEC

- stoichiometry N: 2
Substance: Xenopus tropicalis ALDH16B1 (enzyme)
